Measured values: patent US20240084017A1 (ASCENDO BIOTECHNOLOGY, published 2024)

How the values were obtained:
[1] = target: T1, human Mac-1 (integrin αMβ2, CD11b/CD18) (human, UniProt P11215 17-1152; P05107 23-769); test: flow cytometry, HEK293/Mac-1 cells, PBS/MnCl2 (Mn2+), 10 µg/ml of this antibody; binding of reporter mAb m24 read
Protocol: (§1) The HEK293/Mac-1 cells (clone1-4) were counted and washed twice with staining buffer (PBS containing 1% FBS, and 0.1% sodium azide). Cells were adjusted at a concentration of 1×10⁵ cells/ml in staining buffer and treated with/without 0.25 mM MnCl₂ (Sigma). Cells were treated with anti-Mac-1 antibodies and fluorescent conjugated anti-human IgG4 antibodies and incubated for 15 mins. After washing with the staining buffer, the cells were analyzed by flow cytometry. In some examples, these cells were treated with the antibodies (ICRF44, KIM127, m24, or isotype control) in the presence or absence 10 μg/ml anti-Mac-1 antibodies. The cells were then incubated at 37° C. for 30 min. After washing with the staining buffer, the cells were analyzed by flow cytometry.
(§2) TABLE IV The anti-Mac-1 antibody can serve as an antagonist to reduce the conformational change of Mac-1. HEK293/Mac-1 cells (clone1-4) were incubated with 10 μg/ml anti-Mac-1 antibodies under the PBS/MnCl₂ (Mn²⁺) condition. Binding of KIM127 or m24 was detected using flow cytometry.

[2] = target: T1, human Mac-1 (integrin αMβ2, CD11b/CD18); test: flow cytometry, HEK293/Mac-1 cells (clone 1-4), PBS/MnCl2 (Mn2+)
Protocol: as §1
(§3) TABLE II The anti-Mac-1 antibodies selectively bind to different statuses of human Mac-1. HEK293/Mac-1 cells (clone1-4) were incubated in PBS (Mock), or PBS/MnCl₂ (Mn²⁺). Binding of isotype control IgG, the CD11b specific mAb (ICRF44), the CD11b activation-sensing mAb (CBRM1/5), or the screened anti-Mac-1 antibody was detected using flow cytometry.

[3] = target: T1, human Mac-1 (integrin αMβ2, CD11b/CD18); test: flow cytometry, HEK293/Mac-1 cells; MFI in PBS over MFI in PBS/MnCl2
Protocol: as §1, §3

[4] = target: T1, human Mac-1 (integrin αMβ2, CD11b/CD18); test: flow cytometry, HEK293/Mac-1 cells, PBS (Mock), 10 µg/ml of this antibody; binding of reporter mAb KIM127 read
Protocol: as §1
(§4) TABLE III The anti-Mac-1 antibodies can serve as agonist to enhance the conformational change of Mac-1. HEK293/Mac-1 cells (clone1-4) were incubated with 10 μg/ml anti-Mac-1 antibodies under the PBS (Mock) condition. Binding of KIM127 or m24 was detected using flow cytometry.

[5] = target: T1, human Mac-1 (integrin αMβ2, CD11b/CD18); test: flow cytometry, HEK293/Mac-1 cells (clone 1-4), PBS (Mock)
Protocol: as §1, §3

[6] = target: T1, human Mac-1 (integrin αMβ2, CD11b/CD18); test: flow cytometry, HEK293/Mac-1 cells, PBS/MnCl2 (Mn2+), 10 µg/ml of this antibody; binding of reporter mAb KIM127 read
Protocol: as §1, §2

[7] = target: T1, human Mac-1 (integrin αMβ2, CD11b/CD18); test: flow cytometry, HEK293/Mac-1 cells, PBS (Mock), 10 µg/ml of this antibody; binding of reporter mAb m24 read
Protocol: as §1, §4

B1: anti-Mac-1 antibody clone 25A04 (antibody, human IgG4, V domains shown)
VH: EVQLVESGGGLVQPGGSLRLSCAASGFTFSFTAMHWVRQAPGKGLEWVSAIIYNGSEADYADSVKGRFTISRDNSKNTLYLQMNSLRAEDTAVYYCARANDYDHGCCDNYAMDYWGQGTLVTVSS
VL: DIQMTQSPSSLSASVGDRVTITCRASQGIGSYLYWYQQKPGKAPKLLIYDASNLQSGVPSRFSGSGSGTDFTLTISSLQPEDFATYYCMQHGGWPLTFGQGTKVEIK
m24 (Expression relative to IgG4) [1]: 2.11 relative to IgG4 | Mn^2+ MFI [2]: 65800 MFI | Mock/Mn^2+ Ratio [3]: 0.6 | KIM127 (Expression relative to IgG4) [4]: 1.58 relative to IgG4 | Mock MFI [5]: 39600 MFI | KIM127 (Expression relative to IgG4) [6]: 1.34 relative to IgG4 | m24 (Expression relative to IgG4) [7]: 9.33 relative to IgG4

B2: anti-Mac-1 antibody clone 27D06 (antibody, human IgG4, V domains shown)
VH: QVKLQESGAEVVKPGASVKISCKASGYSFTDYNMNWVKQSNGKSLEWIGVINPNYGTTSYNQKFKGKATLTVDQSSSTAYMQLNSLTSEDSAVYYCARTYDYDGDAFAYWGQGTTVTVSS
VL: DIELTQSPALMSASPGEKVTMTCRASSSVSSNNLHWYQQKSGASPKLWIYSTSNLATGAPARFSGSGSGTSYSLTISSMEAEDAATYYCQQWNSNPPTFGGGTKLEIK
m24 (Expression relative to IgG4) [1]: 1.38 relative to IgG4 | Mn^2+ MFI [2]: 16600 MFI | Mock/Mn^2+ Ratio [3]: 0.9 | KIM127 (Expression relative to IgG4) [4]: 0.99 relative to IgG4 | Mock MFI [5]: 15000 MFI | KIM127 (Expression relative to IgG4) [6]: 1.05 relative to IgG4 | m24 (Expression relative to IgG4) [7]: 1.2 relative to IgG4

B3: anti-Mac-1 antibody clone DF4M-31 (antibody, human IgG4, V domains shown)
VH: EVQLVESGGGLVQPGGSLRLSCAASGFTFTSATMSWVRQAPGKGLEWVSIISPGGSETYYADSVKGRFTISRDNSKNTLYLQMNSLRAEDTAVYYCARGGDYPSYYMDPWGQGTLVTVSS
VL: DIQMTQSPSSLSASVGDRVTITCRASQSISNYLAWYQQKPGKAPKLLIYGTSSLQSGVPSRFSGSGSGTDFTLTISSLQPEDFATYYCQQGHQWPWTFGQGTKVEIK
m24 (Expression relative to IgG4) [1]: 3.87 relative to IgG4 | Mn^2+ MFI [2]: 13000 MFI | Mock/Mn^2+ Ratio [3]: 0.36 | KIM127 (Expression relative to IgG4) [4]: 1.13 relative to IgG4 | Mock MFI [5]: 4630 MFI | KIM127 (Expression relative to IgG4) [6]: 1.48 relative to IgG4 | m24 (Expression relative to IgG4) [7]: 3.77 relative to IgG4

B4: anti-Mac-1 antibody clone DF4-22 (antibody, human IgG4, V domains shown)
VH: EVQLVESGGGLVQPGGSLRLSCAASGFTFTDYNVHWVRQAPGKGLEWVSGINSSGSETNYADSVKGRFTISRDNSKNTLYLQMNSLRAEDTAVYYCARDSVFKTVGGYDAVMDYWGQGTLVTVSS
VL: DIQMTQSPSSLSASVGDRVTITCRASQSIYNYLAWYQQKPGKAPKLLIYGTSTLQSGVPSRFSGSGSGTDFTLTISSLQPEDFATYYCMQSYSSPTTFGQGTKVEIK
m24 (Expression relative to IgG4) [1]: 4.37 relative to IgG4 | Mn^2+ MFI [2]: 35200 MFI | Mock/Mn^2+ Ratio [3]: 0.69 | KIM127 (Expression relative to IgG4) [4]: 1.82 relative to IgG4 | Mock MFI [5]: 24400 MFI | KIM127 (Expression relative to IgG4) [6]: 1.64 relative to IgG4 | m24 (Expression relative to IgG4) [7]: 15.7 relative to IgG4

B5: anti-Mac-1 antibody clone 24H01 (antibody, human IgG4, V domains shown)
VH: EVQLVESGGGLVQPGGSLRLSCAASGFTFNNYYMSWVRQAPGKGLEWVSIIYYDGSEADYADSVKGRFTISRDNSKNTLYLQMNSLRAEDTAVYYCARNKDIYSVYGMDYWGQGTLVTVSS
VL: DIQMTQSPSSLSASVGDRVTITCRASQSISNYLAWYQQKPGKAPKLLIYATSNLQSGVPSRFSGSGSGTDFTLTISSLQPEDFATYYCQQANNTPPTFGQGTKVEIK
m24 (Expression relative to IgG4) [1]: 2.36 relative to IgG4 | Mn^2+ MFI [2]: 23900 MFI | Mock/Mn^2+ Ratio [3]: 0.42 | KIM127 (Expression relative to IgG4) [4]: 1.05 relative to IgG4 | Mock MFI [5]: 9940 MFI | KIM127 (Expression relative to IgG4) [6]: 1.49 relative to IgG4 | m24 (Expression relative to IgG4) [7]: 1.92 relative to IgG4

B6: anti-Mac-1 antibody clone 25A06 (antibody, human IgG4, V domains shown)
VH: EVQLVESGGGLVQPGGSLRLSCAASGFTFSSYYMSWVRQAPGKGLEWVSTINYDGSEKDYADSVKGRFTISRDNSKNTLYLQMNSLRAEDTAVYYCARDRLGNYPWFDVWGQGTLVTVSS
VL: DIQMTQSPSSLSASVGDRVTITCRASQSISNYLAWYQQKPGKAPKLLIYDANNLQSGVPSRFSGSGSGTDFTLTISSLQPEDFATYYCQQSYSWPLTFGQGTKVEIK
m24 (Expression relative to IgG4) [1]: 3.5 relative to IgG4 | Mn^2+ MFI [2]: 39400 MFI | Mock/Mn^2+ Ratio [3]: 0.72 | KIM127 (Expression relative to IgG4) [4]: 1.92 relative to IgG4 | Mock MFI [5]: 28500 MFI | KIM127 (Expression relative to IgG4) [6]: 1.74 relative to IgG4 | m24 (Expression relative to IgG4) [7]: 16.8 relative to IgG4
